Reference: US9732156B2, “Methods of treating rheumatoid arthritis using antibodies to matrix metalloproteinase 9” (Gilead Biologics, Inc., priority 2012, dated 2017)

What was measured:
UC = conditions: cited from earlier work
Lewis rats = conditions: rat, in vivo
Experimental: AB0041 was evaluated for safety in Lewis rats in comparison to the pan-MMP inhibitor, Marimastat, in a 28-day study.
Six rats per group were intravenously administered twice per week with either AB0041 at 50 mg/kg or Vehicle-A (10 mM sodium phosphate, pH 6.5, 140 mM sodium chloride, 0.01% Tween20). In addition, six rats per group were treated with Marimastat or Vehicle-M (50% DMSO/50% water) through a surgically implanted subcutaneous Alzet pump (Alzet, Cupertino, Calif.), which delivered at a rate of 2.5 μl/hour for a period of 28 days. The Marimastat release rate was between 6.8 to 5.7 mg/kg/day.
Animals were observed and scored daily for signs of MSS, such as reluctance to move and avoidance of the use of the hind feet. The following system was used to score resting posture, gait and willingness to move: resting posture was scored as 0 (normal), 1 (resting on one foot) or 2 (resting on neither one foot nor two feet). Gait was scored as either 0 (normal), 1 (avoids use of one hind foot) or 2 (avoids use of both hind feet). Willingness-to-move upon stimulation was scored as either 0 (normal movement), 1 (somewhat reluctant to move), 2 (moderately reluctant to move) or 3 (very reluctant to move). In addition, the body weights were recorded twice weekly.
Total scores were calculated as the sum of gait score, resting posture score and willingness-to-move score for each animal. Mean total scores per group were calculated as the average of the total scores from all individual animals per group per day.
Serum was collected from all rats on one day before and days 1, 7, 10, 14, 17, 21, 24, 28 post administration. Serum was centrifuged at 10,000×g for 10 minutes and collected for storage at −20° C. Serum was subject to multianalyte serum protein analysis (RodentMAPv2.0, IDEXX Laboratories).
Tissues and limbs from the rats were harvested and fixed in 10% neutral buffered formalin for histopathologic analysis using hematoxylin and eosin (H&E).

DSS-induced colitis [1] = test: DSS-induced colitis model, treatment of established disease (Example 4); format: in vivo, mouse; conditions: for reduction of the incidence of diarrhea: AUC, did not reach statistical significance; for mean endoscopy score: Day 14 (and Day 10), vs Vehicle and AC-1, AB0046 30 mg/kg IP, ENBREL 10 mg/kg IP; for histopathology: inflammation, edema, mucosal necrosis: colons at termination, compared to vehicle; for MMP9 expression in colon by IHC: three colons per group
Source text: The dextran sodium sulfate (DSS)-induced model of colitis is an accepted model for evaluation of inflammatory bowel disease therapeutics. In this model, oral administration of DSS to mice or rats results in damage to the colonic mucosa. Animals receiving DSS develop bloody diarrhea and lose weight. The inflammation and tissue degradation observed in this model is restricted to the mucosa and generally affects the entire colon. […] The localization of disease and the pathology observed in this model is considered to be reminiscent of human ulcerative colitis (UC), including similar inflammatory cell infiltrate, ulceration, and crypt abscesses.
AB0046 was used in the DSS colitis model (in a 14-day treatment model). Treatment began after 5 days of oral exposure to 3% DSS in drinking water, according to the following experimental design: disease induction with 3% DSS was carried out beginning at day 0 through day 5, with treatment beginning at day 6 (treatment details for animals in groups 1-5 given in Table 2, below); animals were sacrificed at day 14. Etanercept (marketed under the trade name ENBREL®) was used as a reference compound for the therapeutic effect of anti-TNFα therapy in this model. AC-1, an irrelevant antibody of matched isotype (IgG1), was used as a control.
The course of disease was evaluated by video endoscopy (at days 6, 10, and 14), animal weight measurements, observation of stool consistency, and post-study histopathology analysis of colons.
Video endoscopy of the lower colon was performed in a blinded fashion using a small animal endoscope; colitis was scored visually on a scale of 1-4 based on the degree of ulceration, friability, and vascularity present in the tissue. Each mouse was assigned a single score corresponding to the most severe damage observed throughout the entire length of the colon examined.
At study termination, the majority of the distal colon was excised from each animal, formalin-fixed, then embedded in paraffin and sectioned for histology. Slides were stained with hematoxylin and eosin and examined by a board-certified veterinary pathologist blinded as to treatment groups. Tissues were scored for inflammation, edema, and mucosal necrosis according to the scoring scale of 1-4 for each parameter. Sum pathology scores were calculated by summing the three individual parameter score means (inflammation, edema and necrosis).
Body weight and the incidence of diarrhea were recorded daily over the course of the study. The evaluation of body weight changes was performed by calculating the area under the curve (AUC) with the trapezoidal rule method; a similar calculation of AUC for stool consistency was performed by assigning incidence of diarrhea a score of 100 and lack of diarrhea a score of 0.
A trend for reduction of systemic disease-associated cytokines by AB0046 was observed. […] Serum MMP-9 levels were not induced (i.e., no difference between no DSS and vehicle groups; interference by drug antibody cannot be ruled out for MMP9 serum level measurements).

[2] = test system: collagen-induced arthritis; test: Collagen-induced arthritis (CIA) rat model of established disease; format: in vivo; conditions: terminal serum, ELISA
Experimental: (§1) This example provides additional characterizations of the animals in example 7 that were treated with either vehicle, AB0041 (in the rat model) or AB0046 (in the mouse model) at 2, 10, or 50 mg/Kg, Enbrel at 10 mg/Kg, or methotrexate (MTX) at 0.5 mg/Kg.
(§2) In addition to clinical scoring in Table 6 that was conducted in example 7, paw swelling, ankle diameter and body weights of the treated animals were measured. The measurements were conducted once a week before randomization and three times a week thereafter.
In addition, hind limbs were examined microscopically for soft-tissue changes (edema, tissue/vessel necrosis, inflammatory cell infiltration, and fibroplasias) and cartilage and bone changes (cartilage erosion, bone erosion, periosteal bone formation, synovitis, pannus formation, and joint destruction). […] The severity scores were based on global changes in each limb.
For anti-TNF-alpha scoring, the entire region of the limb anterior to the tarsal-metatarsal joint was scored. Anti-CD68 staining was evaluated using 3-4 images per limb of synovial membranes in the joints formed by the talus bone, with the scores of each membrane averaged and the value assigned as the overall inflammation score. […] Also, MMP9-expressing cells were identified as osteoclasts and cells of the monocyte/macrophage lineage.
(§3) Further, serum panel analyses of terminal serum samples were characterized using ELISA. […] AB0046 titers were measured in terminal serum samples.

MMP9 [3] = target: T1, MMP9 (Homo sapiens, UniProt P14780); test: Comparison of binding and inhibitory properties of anti-MMP9 antibodies; conditions: AB0045 compared with AB0041
Target sequence in this assay (P14780 94-707, species assumed): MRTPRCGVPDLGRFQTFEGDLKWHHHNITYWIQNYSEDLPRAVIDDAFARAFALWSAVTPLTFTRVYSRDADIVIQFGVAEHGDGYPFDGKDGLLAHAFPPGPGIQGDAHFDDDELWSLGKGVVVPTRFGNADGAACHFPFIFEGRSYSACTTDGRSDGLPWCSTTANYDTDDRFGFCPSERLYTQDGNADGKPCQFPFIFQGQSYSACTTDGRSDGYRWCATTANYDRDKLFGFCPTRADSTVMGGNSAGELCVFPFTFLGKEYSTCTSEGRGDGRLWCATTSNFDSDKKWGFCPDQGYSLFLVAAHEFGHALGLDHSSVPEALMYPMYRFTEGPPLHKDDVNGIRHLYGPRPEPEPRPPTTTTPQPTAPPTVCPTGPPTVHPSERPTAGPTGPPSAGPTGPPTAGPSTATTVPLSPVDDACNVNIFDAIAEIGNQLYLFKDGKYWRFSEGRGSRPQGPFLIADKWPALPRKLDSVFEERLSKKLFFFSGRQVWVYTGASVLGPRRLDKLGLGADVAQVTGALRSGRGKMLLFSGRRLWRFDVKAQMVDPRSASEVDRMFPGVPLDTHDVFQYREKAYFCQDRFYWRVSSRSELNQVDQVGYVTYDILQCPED

CD4+ T cell = test: EpiScreen ex vivo human T cell activation assay (immunogenicity); format: cell-based; conditions: CD4+ T cell response, 20 healthy donors of various HLA haplotypes
Experimental: The potential clinical immunogenicity of the chimeric MMP9 antibody AB0041 and the humanized MMP9 antibody AB0045 was assessed. An ex vivo human T cell activation assay, the EpiScreen (Antitope, Ltd., Cambridge, UK) was used. The T cell activation in the EpiScreen assay has been correlated to the antibody/protein therapeutic responses in patients. The response of CD4+ T cell in 20 healthy donors, representing a variety of HLA haplotypes, was examined. […] A positive control of KLH induced a response in 95% of the donors, with a magnitude of 6.34+/−2.77 (mean+/−standard deviation).

MMP9 [4] = target: T1, MMP9; test: IHC binding of AB0045 in UC patient colon tissue; set-up: from tissue; host or cells: colon tissue (biopsies) of human ulcerative colitis patients
Experimental: Biopsy samples from human patients with ulcerative colitis (UC) and healthy individuals were examined by immunohistochemistry (IHC) using the MMP9-specific antibodies. Antibodies against myeloperoxidase (MPO, a neutrophil marker; Wirtz 2007), collagen IV (COLIV, basement membranes) and CD31 (endothelial cells) were used to assess disease severity and tissue infrastructure. Staining patterns of TIMP1 and MMP2 also were examined. PMK2 (a macrophage marker) also was assessed.
Target sequence in this assay (P14780 94-707): as the sequence (P14780 94-707, species assumed) above

[5] = Antibody titers in serum of the CIA study; format: in vivo, mouse
Experimental: as §3

[6] = test system: collagen-induced arthritis; test: CIA mouse model of rheumatoid arthritis; format: in vivo
Experimental: as §1, §2
In addition, hind limbs were examined microscopically for soft-tissue changes (edema, tissue/vessel necrosis, inflammatory cell infiltration, and fibroplasias) and cartilage and bone changes (cartilage erosion, bone erosion, periosteal bone formation, synovitis, pannus formation, and joint destruction). A standard severity score was used: 0=no significant change, 1=minimal, 2=mild, 3=moderate and 4=severe. The severity scores were based on global changes in each limb.
as §3

DSS-induced colitis [7] = test: DSS colitis model, prophylactic treatment (Example 5); format: in vivo, mouse
Experimental: The efficacy of AB0046 in a prophylactic setting was assessed and compared with reference agent Prednisolone. The indicated treatment was given at day −1, with the indicated dosing schedules. Induction of disease with 3% DSS was initiated at day 0 and was as described above. Animals were sacrificed at day 14.

For “Infliximab: chimeric therapeutic anti-TNF-alpha antibody Remicade (infliximab)”, the “patients achieving long-term remission completely free of corticosteroids” value (UC) is listed as 26%, the “patients achieving remission by week 8 and remaining in remission through 54 weeks” value (UC) is listed as 20% and the “patients failing to maintain response over 30 or 54 weeks” value (UC) is listed as “approximately 60%”.

With `CNC(=O)[C@@H](NC(=O)[C@H](CC(C)C)[C@H](O)C(=O)NO)C(C)(C)C` [Marimastat] the “average daily total MSS score” value (Lewis rats; Lewis, 18 day) was “above 4.0”, the “average MSS score” value (Lewis rats; Lewis, 25 day) was 5.8 and the “H&E staining of hind knee joints” value (Lewis rats) was “histopathological evidence of fibroplasia was seen”. For the same molecule, the “fibrosis and synovitis in limbs” value (Lewis rats) was “Fibrosis and synovitis were observed”, the “rats with slight limping, avoidance of one hind foot (gait score=1)” value (Lewis rats) was “five” and the severity of fibrosis (Lewis rats) was “mild to severe”. The severity of synovitis (Lewis rats) was “mild”.

For ENBREL [reference compound], the “reduction of the incidence of diarrhea” value (DSS-induced colitis [1]) was “similar”, the mean endoscopy score (DSS-induced colitis [1]) was “significant improvement in endoscopy scores” and the “histopathology: inflammation, edema, mucosal necrosis” value (DSS-induced colitis [1]) was “significantly reduced all three aspects of disease pathology”. For the same molecule, the “MMP9 expression in colon by IHC” value (DSS-induced colitis [1]) was “Reduction of MMP9” and the “serum markers (TIMP-1, GM-CSF, MIP-2, MIP-1β, M-CSF-1, OSM, CXCL10, MCP-5, IL-12p70, INF-γ, IL-12, IL-7)” value [2] was “No reduction of serum markers”.

In the case of `CN(Cc1cnc2nc(N)nc(N)c2n1)c1ccc(C(=O)N[C@@H](CCC(=O)O)C(=O)O)cc1` [methotrexate, reference compound], the “serum markers (TIMP-1, GM-CSF, MIP-2, MIP-1β, M-CSF-1, OSM, CXCL10, MCP-5, IL-12p70, INF-γ, IL-12, IL-7)” value [2] is reported as “consistent increase in these markers”.

B1: AB0045: humanized variant anti-MMP9 antibody, modified IgG4 (S241P), heavy chain variant VH3 (SEQ ID NO: 7), light chain Vk4 (SEQ ID NO: 12) (antibody, V domains shown)
VH: QVQLQESGPGLVKPSETLSLTCTVSGFSLLSYGVHWVRQPPGKGLEWLGVIWTGGTTNYNSALMSRFTISKDDSKNTVYLKMNSLKTEDTAIYYCARYYYGMDYWGQGTLVTVSS
VL: DIQMTQSPSSLSASVGDRVTITCKASQDVRNTVAWYQQKPGKAPKLLIYSSSYRNTGVPDRFSGSGSGTDFTLTISSLQAEDVAVYYCQQHYITPYTFGGGTKVEIK
modifications: modified IgG4 S241P constant region
With B1 the “binding and inhibitory properties” value (MMP9 [3]) was “equivalent binding and inhibitory properties”, the “donors in which a response was induced” value (CD4+ T cell) was “did not induce response in any of the donors” and the “binding to MMP9 by IHC” value (MMP9 [4]) was “bound to MMP9 in UC patient colon tissue”.

B2: AB0046: mouse anti-mouse MMP9 surrogate antibody, kappa light chain (SEQ ID NO: 45), IgG1 heavy chain (SEQ ID NO: 46) (antibody, listed as Mus musculus)
heavy: MGWSSIILFLVATATGVHSQVQLQQPGSVLVRPGASVKLSCTASGYTFTSYWMNWVKQRPGQGLEWIGEIYPISGRTNYNEKFKVKATLTVDTSSSTAYMDLNSLTSEDSAVYYCARSRANWDDYWGQGTTLTVSSAKTTPPSVYPLAPGSAAQTNSMVTLGCLVKGYFPEPVTVTWNSGSLSSGVHTFPAVLQSDLYTLSSSVTVPSSTWPSETVTCNVAHPASSTKVDKKIVPRDCGCKPCICTVPEVSSVFIFPPKPKDVLTITLTPKVTCVVVDISKDDPEVQFSWFVDDVEVHTAQTQPREEQFNSTFRSVSELPIMHQDWLNGKEFKCRVNSAAFPAPIEKTISKTKGRPKAPQVYTIPPPKEQMAKDKVSLTCMITDFFPEDITVEWQWNGQPAENYKNTQPIMDTDGSYFVYSKLNVQKSNWEAGNTFTCSVLHEGLHNHHTEKSLSHSPGK
light: MSSAQFLGLLLLCFQGTRCDIQMTQTTSSLSASLGDRVTISCSASQGISNYLNWYQQKPDGTFKLLIYYTSILHSGVPSRFSGSGSGTDYSLTISNLEPEDIATYYCQQYGWLPRTFGGGTKLEIKRADAAPTVSIFPPSSEQLTSGGASVVCFLNNFYPKDINVKWKIDGSERQNGVLNSWTDQDSKDSTYSMSSTLTLTKDEYERHNSYTCEATHKTSTSPIVKSFNRNEC
modifications: CHAIN (1)...(460) AB0046 IgG1 heavy chain; CHAIN (1)...(233) AB0046 kappa light chain
In the case of B2, the “reduction of the incidence of diarrhea” value (DSS-induced colitis [1]) is reported as “about 30%”, the mean endoscopy score (DSS-induced colitis [1]) is reported as “significant improvement in mean endoscopy scores” and the “histopathology: inflammation, edema, mucosal necrosis” value (DSS-induced colitis [1]) is reported as “significantly reduced all three aspects of disease pathology”. For the same molecule, the “disease-associated increases in serum MCP-1, MCP-3 and eotaxin” value (DSS-induced colitis [1]; terminal serum) was “reduced”, the “serum mediators KC/GRO, CXCL10, MPO, LIF, MIP-2, MCP-5” value (DSS-induced colitis [1]; terminal serum, multianalyte ELISA) was “systemic reduction” and the “serum IL-17A” value (DSS-induced colitis [1]; terminal serum, near lower level of quantification) was “trend for a reduction”. For the same molecule, the “serum IL-6” value (DSS-induced colitis [1]; terminal serum, not distinguished from AC-1 isotype control) was “reduction”, the “MMP9 expression in colon by IHC” value (DSS-induced colitis [1]) was “reduction in MMP9 expression” and the “body weight loss (AUC)” value (DSS-induced colitis [1]; vs AC-1 isotype control or vehicle) was “significant protection against body weight loss”. The “antibody titer in serum” value ([5]; 2 mg/kg dose level) was “not detectable”, the “antibody titer in terminal serum” value ([5]; dosing regimens of 10 and 50 mg/kg) was “measurable drug levels” and the “soft tissue disease, joint damage and destruction (histology)” value ([6]; 50 mg/kg) was “reduced all measures of soft tissue diseases, joint damage and destruction”. For the same molecule, the “qualitative and quantitative measurements of clinical disease (paw swelling, ankle diameter, body weight)” value ([6]; all doses (2, 10, 50 mg/Kg)) was “significant reversal/mitigation”, the “serum markers (KC/GRO, MIP-2, GCP-2, lymphotactin, MCP-1, MCP-3, CXCL-10, OSM, MIP-1β, MIP-1γ, Apo A-1)” value ([6]; terminal serum, ELISA) was “statistically significant reduction” and the endoscopic evaluation (DSS-induced colitis [7]; Day 10, 30 mg/kg IP from day −1) was “efficacy of AB0046 prophylactic treatment was observed”. The incidence of diarrhea (DSS-induced colitis [7]; prophylactic administration) was “reduced the incidence of diarrhea” and the “inflammation, edema, necrosis and pathology sum score” value (DSS-induced colitis [7]; study termination) was “reduced inflammation, edema, and necrosis”.
